Assay [1] has as its target T1, human GIP receptor (human, UniProt P48546 22-466).
T1 construct: whole, on cells; Used as crude membranes of stably transfected CHO cells; also called hGIPR
T1 sequence (looked up): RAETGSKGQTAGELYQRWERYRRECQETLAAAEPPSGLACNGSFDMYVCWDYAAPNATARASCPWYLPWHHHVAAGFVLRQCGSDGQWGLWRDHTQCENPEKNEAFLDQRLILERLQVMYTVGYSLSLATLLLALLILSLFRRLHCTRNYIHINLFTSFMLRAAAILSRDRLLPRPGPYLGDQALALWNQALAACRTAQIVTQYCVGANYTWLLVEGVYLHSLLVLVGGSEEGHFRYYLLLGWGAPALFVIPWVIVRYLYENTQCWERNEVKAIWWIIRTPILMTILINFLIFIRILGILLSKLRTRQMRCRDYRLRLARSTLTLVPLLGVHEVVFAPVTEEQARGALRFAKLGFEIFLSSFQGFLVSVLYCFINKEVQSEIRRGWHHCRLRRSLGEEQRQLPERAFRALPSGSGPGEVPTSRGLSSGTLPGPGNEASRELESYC
Put plainly: SPA, [125I]-GIP displacement, hGIPR membranes.

A further assay addresses T2, human glucagon receptor (human, UniProt P47871 26-477).
T2 construct: whole, on cells; Used as crude membranes of stably transfected HEK293 cells; also called hGcgR; hGLcgR
Kind of assay: SPA, [125I]-Gcg displacement, hGcgR membranes.

The target in assay [2] is T3, human GLP-1 receptor (human, UniProt P43220 24-463).
T3 construct: whole, on cells; Used as crude membranes of stably transfected HEK293 cells; also called hGLP1R; hGLP-1R
Put plainly: SPA, [125I]-GLP-1 displacement, hGLP-1R membranes.

In assay [3] the target is T4, human GIP receptor (human, UniProt P48546 22-466).
T4 construct: whole, on cells; also called hGIPR; hGIP-R
T4 sequence (looked up): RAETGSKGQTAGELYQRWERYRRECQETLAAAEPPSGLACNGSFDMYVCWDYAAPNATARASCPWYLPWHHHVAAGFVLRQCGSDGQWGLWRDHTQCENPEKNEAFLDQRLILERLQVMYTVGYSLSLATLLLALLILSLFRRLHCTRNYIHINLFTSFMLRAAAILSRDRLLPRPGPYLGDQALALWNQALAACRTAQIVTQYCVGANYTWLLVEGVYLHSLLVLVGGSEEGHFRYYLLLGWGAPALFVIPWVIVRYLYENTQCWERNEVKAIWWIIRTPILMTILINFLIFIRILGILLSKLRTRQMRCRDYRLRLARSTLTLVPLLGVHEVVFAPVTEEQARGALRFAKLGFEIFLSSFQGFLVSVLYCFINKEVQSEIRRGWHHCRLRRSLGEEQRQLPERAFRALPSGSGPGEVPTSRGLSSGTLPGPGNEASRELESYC
Put plainly: [125I]-GIP competition SPA, hGIPR membranes. As for the experimental part:
The binding buffer contains 25 mM HEPES, pH 7.4, 2.5 mM CaCl₂, 1 mM MgCl₂, 0.1% (w/v) bacitracin, 0.003% (w/v) TWEEN®-20, and Roche Complete™ Protease Inhibitors without EDTA. […] Plates are sealed and mixed on a plate shaker (setting 6) for 1 minute and read with a PerkinElmer Trilux MicroBeta® scintillation counter after 2.5 to 12 hours of incubation/settling time at room temperature.
(§1) Data are analyzed using four-parameter (curve maximum, curve minimum, IC₅₀, Hill slope) nonlinear regression routines (Genedata Screener, version 12.0.4, Genedata AG, Basal, Switzerland). […] Values for Kᵢ are reported as the geometric mean, with error expressed as the standard error of the mean (SEM) and n is equal to the number of independent replicates (determined in assays performed on different days). Geometric Means are calculated as follows: […]

For assay [4], the target named is T5, human GLP-1 receptor (human, UniProt P43220 24-463).
T5 construct: whole, on cells; also called hGLP-1R; hGLP1R
Kind of assay: [125I]-GLP-1 competition SPA, hGLP-1R membranes. As for the experimental part: The binding buffer contains 25 mM HEPES, pH 7.4, 2.5 mM CaCl₂, 1 mM MgCl₂, 0.1% (w/v) bacitracin, 0.003% (w/v) TWEEN®-20, and Roche Complete™ Protease Inhibitors without EDTA.
as §1

The results in this text go back to US20200024322A1 (Eli Lilly, published 2020).

Numbered stars: 1 amine (or outer) side, 2 acyl side, 3 side chain; on linkers, the order of the positions; unused ones are H or OH. Square brackets hold non-standard residues; d marks the D form. Side chains are listed from the residue outwards. Ends that are not written are not given here. * marks the point of attachment. C20 diacid = O=C(O)CCCCCCCCCCCCCCCCCCC(=O)*; γGlu = O=C(O)[C@H](CCC(=O)[*:2])N[*:1]; αMeL = CC(C)C[C@](C)(N)C(=O)O; αMeK = C[C@](N)(CCCCN)C(=O)O; Dab = NCC[C@H](N)C(=O)O; AEEA = NCCOCCOCC(=O)O; Aib = CC(C)(N)C(=O)O

T2 sequence (P47871 26-477): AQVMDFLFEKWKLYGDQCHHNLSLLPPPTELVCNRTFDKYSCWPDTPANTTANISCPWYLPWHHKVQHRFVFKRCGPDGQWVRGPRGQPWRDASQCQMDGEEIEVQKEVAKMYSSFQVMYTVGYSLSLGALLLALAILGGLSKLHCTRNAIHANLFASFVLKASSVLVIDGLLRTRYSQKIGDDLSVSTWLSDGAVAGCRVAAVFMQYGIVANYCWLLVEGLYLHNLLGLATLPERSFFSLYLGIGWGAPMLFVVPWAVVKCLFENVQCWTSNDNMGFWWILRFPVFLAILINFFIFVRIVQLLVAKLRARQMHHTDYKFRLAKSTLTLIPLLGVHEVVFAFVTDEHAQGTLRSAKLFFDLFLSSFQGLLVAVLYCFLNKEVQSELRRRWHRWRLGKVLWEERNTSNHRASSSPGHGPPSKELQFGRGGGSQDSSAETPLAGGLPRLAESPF

With H[Aib]EGTFTSDYSI[αMeL]LDKK([Dab-AEEA-Dab-AEEA-C20 diacid])AQ[αMeK]AFIQYLLA[Aib]GPSSGAPKPS-NH2 [Example 18], the Ki came to 0.0798 nM with human GIP receptor [1], 50.1 nM with human glucagon receptor and 0.319 nM in the assay with human GLP-1 receptor [2].

H[Aib]EGTFTSDYSI[αMeL]LDKK([Dab-AEEA-Dab-AEEA-C20 diacid])AQ[αMeK]AFIQYLLA[Aib]GPSSGAPPPS-NH2 [Example 19]: the Ki turned out to be 0.0518 nM with human GIP receptor [1], 60.5 nM in the assay with human glucagon receptor and 0.24 nM in the assay with human GLP-1 receptor [2].

B1: Example 16 (peptide)
peptide: H[Aib]EGTFTSDYSILLDKK([AEEA-AEEA-γGlu-C20 diacid])AQ[Aib]AFIEYLIE[Aib]GPSSGAPPPS-NH2
modifications: N-terminus assumed
SMILES: CC[C@H](C)[C@H](NC(=O)[C@H](Cc1ccccc1)NC(=O)[C@H](C)NC(=O)C(C)(C)NC(=O)[C@H](CCC(N)=O)NC(=O)[C@H](C)NC(=O)[C@H](CCCCNC(=O)COCCOCCNC(=O)COCCOCCNC(=O)CC[C@H](NC(=O)CCCCCCCCCCCCCCCCCCC(=O)O)C(=O)O)NC(=O)[C@H](CCCCN)NC(=O)[C@H](CC(=O)O)NC(=O)[C@H](CC(C)C)NC(=O)[C@H](CC(C)C)NC(=O)[C@@H](NC(=O)[C@H](CO)NC(=O)[C@H](Cc1ccc(O)cc1)NC(=O)[C@H](CC(=O)O)NC(=O)[C@H](CO)NC(=O)[C@@H](NC(=O)[C@H](Cc1ccccc1)NC(=O)[C@@H](NC(=O)CNC(=O)[C@H](CCC(=O)O)NC(=O)C(C)(C)NC(=O)[C@@H](N)Cc1c[nH]cn1)[C@@H](C)O)[C@@H](C)O)[C@@H](C)CC)C(=O)N[C@@H](CCC(=O)O)C(=O)N[C@@H](Cc1ccc(O)cc1)C(=O)N[C@@H](CC(C)C)C(=O)N[C@H](C(=O)N[C@@H](CCC(=O)O)C(=O)NC(C)(C)C(=O)NCC(=O)N1CCC[C@H]1C(=O)N[C@@H](CO)C(=O)N[C@@H](CO)C(=O)NCC(=O)N[C@@H](C)C(=O)N1CCC[C@H]1C(=O)N1CCC[C@H]1C(=O)N1CCC[C@H]1C(=O)N[C@@H](CO)C(N)=O)[C@@H](C)CC
As to B1, the Ki is 0.0841 nM with human GIP receptor [1], 371 nM in the assay with human glucagon receptor and 2.78 nM with human GLP-1 receptor [2].

B2: Example 232 (peptide)
peptide: YXEGTXTSDXSIXLDXKAQXEFIXYLIEGGPSSGAPPPS
modifications: Aib2; αMeF(2F)6; 4Pal10; αMeL13; Orn16; K17((2-[2-(2-Amino-ethoxy)-ethoxy]-acetyl)2-(γ-Glu)-CO-(CH2)16-CO2H); Aib20; D-Glu24; C-terminal NH2
As to B2, the results for the inhibition constant Ki with human GIP receptor [3] and in the assay with human GLP-1 receptor [4] were 0.0544 nM and 5.62 nM, respectively.

B3: Example 247 (peptide)
peptide: YXEGTXTSDYSIXLDXKAQXEFIXYLIEGGPSSGAPPPS
modifications: Aib2; αMeF(2F)6; Aib13; Orn16; K17((2-[2-(2-Amino-ethoxy)-ethoxy]-acetyl)2-(γ-Glu)-CO-(CH2)16-CO2H); Aib20; D-Glu24; C-terminal NH2
As to B3, the Ki with human GLP-1 receptor [4] came out at 4.39 nM.

B4: Example 22 (peptide)
peptide: Y[Aib]EGTFTSDYSI[αMeL]LDEK([AEEA-AEEA-γGlu-C20 diacid])AQ[αMeK]AFIEYLLE[Aib]GPSSGAPPPS-NH2
modifications: N-terminus assumed
SMILES: CC[C@H](C)[C@H](NC(=O)[C@H](Cc1ccccc1)NC(=O)[C@H](C)NC(=O)[C@](C)(CCCCN)NC(=O)[C@H](CCC(N)=O)NC(=O)[C@H](C)NC(=O)[C@H](CCCCNC(=O)COCCOCCNC(=O)COCCOCCNC(=O)CC[C@H](NC(=O)CCCCCCCCCCCCCCCCCCC(=O)O)C(=O)O)NC(=O)[C@H](CCC(=O)O)NC(=O)[C@H](CC(=O)O)NC(=O)[C@H](CC(C)C)NC(=O)[C@](C)(CC(C)C)NC(=O)[C@@H](NC(=O)[C@H](CO)NC(=O)[C@H](Cc1ccc(O)cc1)NC(=O)[C@H](CC(=O)O)NC(=O)[C@H](CO)NC(=O)[C@@H](NC(=O)[C@H](Cc1ccccc1)NC(=O)[C@@H](NC(=O)CNC(=O)[C@H](CCC(=O)O)NC(=O)C(C)(C)NC(=O)[C@@H](N)Cc1ccc(O)cc1)[C@@H](C)O)[C@@H](C)O)[C@@H](C)CC)C(=O)N[C@@H](CCC(=O)O)C(=O)N[C@@H](Cc1ccc(O)cc1)C(=O)N[C@@H](CC(C)C)C(=O)N[C@@H](CC(C)C)C(=O)N[C@@H](CCC(=O)O)C(=O)NC(C)(C)C(=O)NCC(=O)N1CCC[C@H]1C(=O)N[C@@H](CO)C(=O)N[C@@H](CO)C(=O)NCC(=O)N[C@@H](C)C(=O)N1CCC[C@H]1C(=O)N1CCC[C@H]1C(=O)N1CCC[C@H]1C(=O)N[C@@H](CO)C(N)=O
Regarding B4, the figures for the inhibitory constant (Ki) in the assay with human GIP receptor [1], with human glucagon receptor and with human GLP-1 receptor [2] were 0.624 nM, 53.4 nM and 23.1 nM, respectively.

B5: Example 17 (peptide)
peptide: H[Aib]EGTFTSDYSILLDKIAQK([AEEA-AEEA-γGlu-C20 diacid])AFIEYLLE[Aib]GPSSG-NH2
modifications: N-terminus assumed
SMILES: CC[C@H](C)[C@H](NC(=O)[C@H](CCCCN)NC(=O)[C@H](CC(=O)O)NC(=O)[C@H](CC(C)C)NC(=O)[C@H](CC(C)C)NC(=O)[C@@H](NC(=O)[C@H](CO)NC(=O)[C@H](Cc1ccc(O)cc1)NC(=O)[C@H](CC(=O)O)NC(=O)[C@H](CO)NC(=O)[C@@H](NC(=O)[C@H](Cc1ccccc1)NC(=O)[C@@H](NC(=O)CNC(=O)[C@H](CCC(=O)O)NC(=O)C(C)(C)NC(=O)[C@@H](N)Cc1c[nH]cn1)[C@@H](C)O)[C@@H](C)O)[C@@H](C)CC)C(=O)N[C@@H](C)C(=O)N[C@@H](CCC(N)=O)C(=O)N[C@@H](CCCCNC(=O)COCCOCCNC(=O)COCCOCCNC(=O)CC[C@H](NC(=O)CCCCCCCCCCCCCCCCCCC(=O)O)C(=O)O)C(=O)N[C@@H](C)C(=O)N[C@@H](Cc1ccccc1)C(=O)N[C@H](C(=O)N[C@@H](CCC(=O)O)C(=O)N[C@@H](Cc1ccc(O)cc1)C(=O)N[C@@H](CC(C)C)C(=O)N[C@@H](CC(C)C)C(=O)N[C@@H](CCC(=O)O)C(=O)NC(C)(C)C(=O)NCC(=O)N1CCC[C@H]1C(=O)N[C@@H](CO)C(=O)N[C@@H](CO)C(=O)NCC(N)=O)[C@@H](C)CC
On to B5, for which the Ki with human GIP receptor [1] stood at 0.606 nM; with human glucagon receptor, 261 nM; with human GLP-1 receptor [2], 7.63 nM.

B6: Example 229 (peptide)
peptide: YXEGTXTSDYSXLDEKAQXEFIXYLIEGGPSSGAPPPS
modifications: Aib2; αMeF(2F)6; αMeL12; K16((2-[2-(2-Amino-ethoxy)-ethoxy]-acetyl)2-(γ-Glu)-CO-(CH2)18-CO2H); Aib19; D-Glu23; C-terminal NH2 (positions counted on this 38-residue peptide)
As for B6, the Ki with human GIP receptor [3] turned out to be 2.47 nM; in the assay with human GLP-1 receptor [4], 36.2 nM.

B7: Example 330 (peptide)
peptide: Y[Aib]EGTFTSDYSILLDEK([AEEA-AEEA-γGlu-C20 diacid])AQ[Aib]AFIEYLIAGGPSSGAPPPS-NH2
modifications: N-terminus assumed
SMILES: CC[C@H](C)[C@H](NC(=O)[C@H](CC(C)C)NC(=O)[C@H](Cc1ccc(O)cc1)NC(=O)[C@H](CCC(=O)O)NC(=O)[C@@H](NC(=O)[C@H](Cc1ccccc1)NC(=O)[C@H](C)NC(=O)C(C)(C)NC(=O)[C@H](CCC(N)=O)NC(=O)[C@H](C)NC(=O)[C@H](CCCCNC(=O)COCCOCCNC(=O)COCCOCCNC(=O)CC[C@H](NC(=O)CCCCCCCCCCCCCCCCCCC(=O)O)C(=O)O)NC(=O)[C@H](CCC(=O)O)NC(=O)[C@H](CC(=O)O)NC(=O)[C@H](CC(C)C)NC(=O)[C@H](CC(C)C)NC(=O)[C@@H](NC(=O)[C@H](CO)NC(=O)[C@H](Cc1ccc(O)cc1)NC(=O)[C@H](CC(=O)O)NC(=O)[C@H](CO)NC(=O)[C@@H](NC(=O)[C@H](Cc1ccccc1)NC(=O)[C@@H](NC(=O)CNC(=O)[C@H](CCC(=O)O)NC(=O)C(C)(C)NC(=O)[C@@H](N)Cc1ccc(O)cc1)[C@@H](C)O)[C@@H](C)O)[C@@H](C)CC)[C@@H](C)CC)C(=O)N[C@@H](C)C(=O)NCC(=O)NCC(=O)N1CCC[C@H]1C(=O)N[C@@H](CO)C(=O)N[C@@H](CO)C(=O)NCC(=O)N[C@@H](C)C(=O)N1CCC[C@H]1C(=O)N1CCC[C@H]1C(=O)N1CCC[C@H]1C(=O)N[C@@H](CO)C(N)=O
In the assay with human GIP receptor [3], B7 yielded a Ki of 0.114 nM.

In general, Ki refers to a measure of affinity in units of concentration, obtained from inhibition or displacement. Lower therefore signals higher affinity.
